Experimental data as given in publication PMC12155429, “PTPA Governs Stress-Responsive Differentiation and Metabolic Homeostasis in Toxoplasma gondii” (Cells, 2025).

Molecular target: T1, pMAL–PP2AA–His (Toxoplasma gondii PP2A A subunit) (Toxoplasma gondii, UniProt S8EX93 1-766)
T1 construct: PP2A A subunit of Toxoplasma gondii (TGME49_315670), amplified from Toxoplasma cDNA; printed length 766 aa, ~130 kDa with the pMAL tag; also called PP2A scaffold (A) subunit; source: E. coli, purified (MBPSep Dextrin Agarose Resin, eluted with 10 mM maltose); not shown: MBP (from the vector pMAL)
T1 sequence (looked up): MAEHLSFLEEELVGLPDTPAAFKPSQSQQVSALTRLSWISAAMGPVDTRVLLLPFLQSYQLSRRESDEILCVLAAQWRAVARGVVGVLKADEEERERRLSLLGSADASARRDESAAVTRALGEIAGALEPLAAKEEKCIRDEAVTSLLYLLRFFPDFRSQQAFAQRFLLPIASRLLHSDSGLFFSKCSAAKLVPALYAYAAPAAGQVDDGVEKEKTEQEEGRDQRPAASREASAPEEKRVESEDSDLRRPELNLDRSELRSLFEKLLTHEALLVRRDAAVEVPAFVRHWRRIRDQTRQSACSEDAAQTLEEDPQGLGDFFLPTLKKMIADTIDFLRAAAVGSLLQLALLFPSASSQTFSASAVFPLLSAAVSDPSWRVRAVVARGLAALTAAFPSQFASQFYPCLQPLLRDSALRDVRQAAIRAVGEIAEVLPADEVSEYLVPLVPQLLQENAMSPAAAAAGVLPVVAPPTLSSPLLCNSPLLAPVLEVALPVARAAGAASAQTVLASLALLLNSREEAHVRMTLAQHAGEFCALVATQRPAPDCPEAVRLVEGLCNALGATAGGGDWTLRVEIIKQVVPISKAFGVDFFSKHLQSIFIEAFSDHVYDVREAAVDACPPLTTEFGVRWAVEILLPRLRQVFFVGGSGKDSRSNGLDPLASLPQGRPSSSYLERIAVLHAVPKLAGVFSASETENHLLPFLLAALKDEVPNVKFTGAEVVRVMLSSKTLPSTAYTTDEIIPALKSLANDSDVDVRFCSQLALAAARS
Experiment: pull-down; anti-His or anti-HA magnetic beads washed with TBS, incubated with the tagged protein 5 h at 4 °C, then with the target protein 5 h; washed, eluted, Western blot
Conditions: both partners purified

B1: pMAL–PP2AC–HA (Toxoplasma gondii PP2A C subunit) (enzyme, UniProt A0A125YNB3 1-347, looked up)
chain: MSGATPGAVAALQPASAAPALFTIPADVAPSDLPDHYLGQEELRGIDKQMEKLFKCEKLDEEEVRSLCAVLKDILVQEANVQPVRTPVTVVGDIHGQFHDLLEIFKCAGTCPSVNFLFLGDYVDRGLNSVESVSLVFLLKVRYRHRVTLIRGNHESRQITQVYGFYDECLRKYGNANVWNYFTDVFDYLPLSALIEDQIFCPHAGLSPTIETLDHVRLLERFQEVPHEGPMCDLLWSDPEEQMPGWGMSPRGAGYTFGQDISEKFNHVNGLKLIARAHQLIMEGFQWSQANNVVTIFSAPNYCYRCGNQAAIMKIDEHMNYTFIQFNPSLLQASGADMQKRIPDYFL
notes: PP2A C subunit of Toxoplasma gondii (TGME49_224220), amplified from Toxoplasma cDNA; printed length 347 aa, ~80 kDa with the pMAL tag; also called PP2A catalytic (C) subunit; source: E. coli, purified (MBPSep Dextrin Agarose Resin, eluted with 10 mM maltose); not shown: MBP (from the vector pMAL)
- binding result: binds
